Assay results from patent publication US20030068416A1, “Method of lyophylization to reduce solvent content and enhance product recovery” (priority 2001, published 2003).

How the values were obtained:
Format in all cases: physicochemical
[1] = Residual solvent content of trypsin after lyophilization (Example 1); details: primary and secondary drying cycles, 62 hours
Description: (§1) When the solvent is water, the residual solvent content referenced herein refer to levels determined by the FDA approved, modified Karl Fischer method (Meyer and Boyd, Analytical Chem., 31:215-219, 1959; May, et al., J. Biol. Standardization, 10:249-259, 1982; Centers for Biologics Evaluation and Research, FDA, Docket No. 89D-0140, 83-93; 1990) or by near infrared spectroscopy.
1 ml aliquots of trypsin alone or with 100 mM sodium ascorbate were placed in 3 ml vials. Samples were prepared in triplicate and subjected to lyophilization (primary and secondary drying cycles; 62 hours).

[2] = Residual solvent content of trypsin after lyophilization, sampled after primary drying and at end of cycle (Example 2)
Description: as §1
(§2) 1 ml aliquots of trypsin alone or with 100 mM sodium ascorbate were placed in 3 ml vials. Samples were prepared in triplicate and subjected to lyophilization. Samples were removed (using sample thief) at the end of primary drying (22 hours after start of the cycle), the cycle continued to completion (62 hours after start of cycle) at this time vials were sealed under vacuum and removed from the freeze dryer.

[3] = Residual solvent content of trypsin frozen overnight at -70 C and lyophilized (Example 3); details: frozen overnight at -70 C before lyophilization
Description: as §1
as §2, with “vials and frozen overnight at −70° C.” for “vials.”, “quadruplicate” for “triplicate”

trypsin
residual solvent content ([1]; absence of sodium ascorbate): about 1.8 % water
residual solvent content ([1]; presence of 100 mM sodium ascorbate): about 0.7 % water
residual solvent content ([2]; absence of sodium ascorbate, following a primary drying cycle alone (22 hours)): about 5.8 % water
residual solvent content ([2]; absence of sodium ascorbate, following primary and secondary drying cycle (62 hours)): about 5.4 % water
residual solvent content ([2]; presence of 100 mM sodium ascorbate, following a primary drying cycle alone (22 hours)): about 2.8 % water
residual solvent content ([2]; presence of 100 mM sodium ascorbate, following primary and secondary drying cycle (62 hours)): about 1.1 % water
residual solvent content ([3]; absence of ascorbate): about 3.9 % water
residual solvent content ([3]; presence of ascorbate (100 mM sodium ascorbate)): 0.7 % water
